This note sets out measurements from US20030003461, “Truncation selex method” (Gilead Sciences, Inc., published 2003).

Where a chain is given by its changes, count along the chain named.

One data set addresses VEGF (VEGF165?) (Homo sapiens, UniProt P15692-4 P15692-4:27-191). As to the kind of experiment: filter; phenotype 5: non-binding with or without 3' fixed sequence. The following applies: tags: R&D Systems; chain copies: 2; label: 32P body.
Data set [1] addresses T1, VEGF (Homo sapiens, UniProt P15692-4 P15692-4:27-191). As to the kind of experiment: filter; phenotype 4: unaffected. The following applies: tags: recombinant human, R&D Systems; chain copies: 2.
The target of data set [2] is T1, VEGF. The data set is described as follows: filter; phenotype 2: somewhat affected. The note with it: tags: recombinant human, R&D Systems; chain copies: 2.
Data set [3] concerns the target T1, VEGF. The data set is described as follows: filter; phenotype 3: gains significant affinity when truncated. The note with it: tags: recombinant human, R&D Systems; chain copies: 2.
In data set [4] the target is MS2 coat protein (MS2 CP) (bacteriophage MS2, UniProt P03612 P03612:2-130, V75E;A81G). The data set is described as follows: filter; binds better than natural MS2 site. The note with it: chain copies: 2 (dimer, stated); hairpin.

Chain of VEGF (VEGF165?) (P15692 other isoform, or with tags, fused parts or gaps): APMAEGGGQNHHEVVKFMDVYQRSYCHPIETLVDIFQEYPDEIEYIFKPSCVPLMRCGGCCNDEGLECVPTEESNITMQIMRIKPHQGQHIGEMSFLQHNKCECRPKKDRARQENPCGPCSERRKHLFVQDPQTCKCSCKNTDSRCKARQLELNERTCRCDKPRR
T1 sequence (P15692 other isoform, or with tags, fused parts or gaps): as above

With GGGAGCAGACGACUCGCCCGAGGAGGAGGGGGGCAGACGACUCGCCCGA (ssRNA, 2'-F pyrimidines) [T1-3], in the data set with VEGF (VEGF165?), the binding result is listed as “no binding”.

B1: T1-1 (ssRNA)
RNA: GGGAGCGGACGACCUGGUGAAUGCCAAUAUACUUUUCGCGUCACAGACGACUCGCCCGA
modifications: 2'-F pyrimidines
With B1, the binding result with VEGF (VEGF165?) is reported as “no binding”.

B2: VEGF hyb 6 (ssRNA)
RNA: GGGAGGACGAUGCGGAUUUGGAUGCAUGUCAAGGCGUUUUGCCCUCAGACGACUCGCCCGA
modifications: 2'-F pyrimidines
Regarding B2, the binding result with VEGF [1] was “binds”.

B3: VT30.9 (ssRNA)
RNA: GGGAGGACGAUGCGGUCAACCGGUUGAAUAUUUGGUCGCUGACCUCAGACGACUCGCCCGA
modifications: 2'-F pyrimidines
Take B3: the binding result in the data set with VEGF [1] is on record as “binds”.

B4: T1-2 (ssRNA)
RNA: GGGAGACCACCAGACGACUCGCCCGAACGCUUAUCCUCUGGUCAGACGACUCGCCCGA
modifications: 2'-F pyrimidines
Regarding B4, in the data set with VEGF (VEGF165?), the binding result is “no binding”.

B5: VEGF hyb 2a,23 (VT30.3) (ssRNA)
RNA: GGGAGGACGAUGCGGAGAAUCAGUGAAUGCUUAUAAAUCUCGUGUCAGACGACUCGCCCGA
modifications: 2'-F pyrimidines
As for B5, the binding result with VEGF [1] is reported as “binds”.

B6: VT30.3 (ssRNA)
RNA: B5 RNA
modifications: 2'-F pyrimidines
For B6, in the data set with VEGF [2], the binding result is “binds”.

Consider GGGAGGAAACGGAAGAAUUGGAAAACACCCGUCCAGACGACUCGCCCGA (ssRNA, 2'-F pyrimidines) [T2-7], for which, in the data set with VEGF [2], the binding result was “binds”.

B7: VEGF hyb 1 (ssRNA)
RNA: GGGAGGACGAUGCGGAGCUAGGUGAAUGCCGAUAUUCUCUUCCGUCAGACGACUCGCCCGA
modifications: 2'-F pyrimidines
With B7, in the data set with VEGF [1], the binding result is recorded as “binds”.

B8: VEGF hyb 21b (ssRNA)
RNA: B7 RNA with A16U, G17A, U35A, C39U, U40A
modifications: 2'-F pyrimidines
Take B8: the binding result in the data set with VEGF [3] was “binds”.

B9: T1-4 (ssRNA)
RNA: GGGAGGCAGACGACUCGCCCGAGGAUACACAUCGUGUGGUCAGACGACUCGCCCGA
modifications: 2'-F pyrimidines
With B9, in the data set with VEGF (VEGF165?), the binding result is given as “no binding”.

B10: isolate 7 (ssRNA)
RNA: GGGAAAGCCCACGCCAGUAAUUACGCCAUGAACACAGGCAUAAAGAAGUACAUAUGGUACCGAACUGCCGCACC
B10: the binding result in data set [4] was “binds”.

B11: VEGF hyb 4b (ssRNA)
RNA: GGGAGGACGAUGCGGAGACUUUGGAAGAAUUGAAUUUGUCCGUGUCAGACGACUCGCCCGA
modifications: 2'-F pyrimidines
On to B11, for which the binding result in the data set with VEGF [2] was “binds”.

B12: o356 isolate 3 (ssRNA)
RNA: GGGAAAGCCCACGCCAAUGUUCCACCAGCAGGGGAAAUGAUGUUGUUCUGGCUACCGAACUGCCGCACC
In the case of B12, the binding result in data set [4] is reported as “binds”.

B13: ygiI isolate 4 (ssRNA)
RNA: GGGAAAGCCCACGCCUAGGAGAGCGUUAACAACAGCAUCAGCGUUGAAGUGACGGAGGUACCGAACUGCCGCACC
On to B13, for which the binding result in data set [4] is reported as “binds”.

B14: T2-17 (ssRNA)
RNA: GGGAGAGGAGAAUCAGUGAAUGCUUAUAAAUCUCGUGUCACACAGACGACUCGCCCGA
modifications: 2'-F pyrimidines
Consider B14, for which the binding result with VEGF [2] is recorded as “binds”.

B15: VEGF hyb 24 (ssRNA)
RNA: GGGAGGACGAUGCGGAAGGCGACUUGUAUGUGAUUCAGUAUUGGUCAGACGACUCGCCCGA
modifications: 2'-F pyrimidines
Consider B15, for which the binding result in the data set with VEGF [2] was “binds”.

B16: mreD isolate 5 (ssRNA)
RNA: GGGAAAGCCCACGCCUGAUUUGCAGCAACAGCGCAAUGAGGAAAGAGAGCCAGAUUACCCACCGAACUGCCGCACC
Turning to B16, in data set [4], the binding result is recorded as “binds”.

B17: T1-13 (ssRNA)
RNA: GGGAGCAGACGACUCGCCCGACAGACCACUCGCCCGACAGACGACUCGCCCGA
modifications: 2'-F pyrimidines
For the molecule B17, the binding result in the data set with VEGF (VEGF165?) was “no binding”.

B18: VEGF hyb 13b,21a (ssRNA)
RNA: GGGAGGACGAUGCGGUGUUGAUCGAGAUUUAAUCUAUUUCCACGUCAGACGACUCGCCCGA
modifications: 2'-F pyrimidines
Take B18: the binding result with VEGF [3] is recorded as “binds”.

B19: T1-5 (ssRNA)
RNA: GGGAGGGUGAAUGCCAACGAUUUUAUCGCCUAUCGUCACAGACGACUCGCCCGA
modifications: 2'-F pyrimidines
Consider B19, for which, in the data set with VEGF (VEGF165?), the binding result is “no binding”.

B20: VEGF hyb 3a (VT30.1) (ssRNA)
RNA: GGGAGGACGAUGCGGAACUAGUGAAUGCUUAUACGACCGUGUUGUCAGACGACUCGCCCGA
modifications: 2'-F pyrimidines
Take B20: the binding result in the data set with VEGF [2] is reported as “binds”.

B21: T2-20 (ssRNA)
RNA: GGGAGGGGAGGAAACGGAAGAAUUGGAAAACACCCGUCAGCACAGACGACUCGCCCGA
modifications: 2'-F pyrimidines
Consider B21, for which the binding result with VEGF [2] is “binds”.

B22: T2-18 (ssRNA)
RNA: GGGAGUGGAAAUCAGUGAAUGCUUAUAGUUUCUCGCGUCACACAGACGACUCGCCCGA
modifications: 2'-F pyrimidines
In the case of B22, the binding result with VEGF [1] was “binds”.

B23: VEGF hyb 15b,19 (ssRNA)
RNA: GGGAGGACGAUGCGGACAUGUAGGAAGAAUUGGAAGAUGCCGCGUCAGACGACUCGCCCGA
modifications: 2'-F pyrimidines
Turning to B23, the binding result with VEGF [2] is reported as “binds”.

B24: T2-23 (ssRNA)
RNA: GGGAGGGACUGAAUGAAUGUUGACGGUUACGCUUUCCCCACAGACGACUCGCCCGA
modifications: 2'-F pyrimidines
As to B24, the binding result with VEGF [1] is “binds”.

B25: T1-15 (ssRNA)
RNA: GGGAGGGGGGGGGAGUGAAUGCUUAUUAGAUCUGCCGUCACAGACGACUCGCCCGA
modifications: 2'-F pyrimidines
On to B25, for which the binding result with VEGF (VEGF165?) is “no binding”.

B26: T2-11 (ssRNA)
RNA: GGGAGGGACACUGGUUCCGAAGUAUUGUCUUUGUCCUCACAGCAGACGACUCGCCCGA
modifications: 2'-F pyrimidines
For the molecule B26, the binding result with VEGF [2] is listed as “binds”.

B27: VEGF hyb 4a (ssRNA)
RNA: GGGAGGACGAUGCGGAAACGGAACUUCUUGGAUACAUCUGCUCGUCAGACGACUCGCCCGA
modifications: 2'-F pyrimidines
On to B27, for which the binding result in the data set with VEGF [3] is “binds”.

Regarding GGGAGGUCUCCAGACGACUCGCCCGA (ssRNA, 2'-F pyrimidines) [T1-16], the binding result in the data set with VEGF (VEGF165?) is given as “no binding”.

B28: pheT isolate 2 (ssRNA)
RNA: GGGAAAGCCCACGCCCUUCGCUUCAGUACCGUCGAGCAGCACCAGCGUUUCGCCACCGAACUGCCGCACC
B28: in data set [4], the binding result is “binds”.
